Patent publication US20220411840A1, “High Efficiency Template-Free Enzymatic Synthesis of Polynucleotides” (DNA Script, priority 2019, published 2022)
Changes are numbered by the printed parent chain. In names and notes the source's numbering stands.

B1: M55: ACT-TdT variant: SEQ ID NO: 1 with substitutions A17V+Q37E+D41R+L52F+G57E+M63R+S94R+G98E+A108V+S146E+K147R+Q149R+C173G+M184T+R207L+K209H+M210Q+G284L+E289A+R325V+E328K+N345E+R351K (protein)
chain: NSSPSPVPGSQNVPAPVVKKISQYACQRRTTLNNYNELFTRALDILAENDEFRENEESCLAFRRASSVLKSLPFPITSMKDTEGIPCLGDKVKRIIEEIIEDGESSEVKAVLNDERYKSFKLFTSVFGVGLKTAEKWFRMGFRTLERIRSDKSLRFTQMQKAGFLYYEDLVSGVNRPEAEAVSTLVKEAVVTFLPDALVTMTGGFRLGHQTGHDVDFLITSPEATEDEEQQLLHKVTDFWKQQGLLLYCDILESTFEKFKQPSRKVDALDHFQKCFLILKLDHLRVHSAKSGQQEGKGWKAIRVDLVMCPYDRRAFALLGWTGSVQFKRDLRRYATHERKMMLDEHALYDKTKRVFLEAESEEEIFAHLGLDYIEPWERNA
modifications: truncated mouse TdT
B2: M56: G-TdT variant: SEQ ID NO: 1 with substitutions A17V+Q37E+D41R+L52F+G57E+M63R+I76V+S94R+G98E+A108V+S146E+Q149R+C173G+M184T+R207L+K209H+F259E+Q261R+K265G+G284L+E289A+R325V+E328N+R351K (protein)
chain: B1 chain with I76V, R147K, Q210M, F259E, Q261R, K265G, K328N, E345N
modifications: truncated mouse TdT

Legend:
[1] = test system: synGG primer (5′-TGTGAGAGTGAAATGAGG, SEQ ID NO: 7); experiment: Incorporation of 3′-O-azidomethyl nucleoside triphosphates (AM-dNTPs) by TdT variants on primer synGG in solution; type: biochemical; settings: 1 uM primer, 2 uM TdT variant, 80 uM AM-dNTP, 10% DMSO, 5 min at 37° C.
[2] = test system: polyT primer (5′-TTTTTTTTTTTTTTTTTTTT (20T), SEQ ID NO: 8); experiment: Incorporation of 3′-O-azidomethyl nucleoside triphosphates (AM-dNTPs) by TdT variants on primer polyT in solution; type: biochemical; settings: 1 uM primer, 2 uM TdT variant, 80 uM AM-dNTP, 10% DMSO, 5 min at 37° C.

Molecule | Percentage of AM-dNTP Incorporation (percentage of extended primers) ([1]; AM-dNTP: A) [%] | Percentage of AM-dNTP Incorporation (percentage of extended primers) ([1]; AM-dNTP: C) [%] | Percentage of AM-dNTP Incorporation (percentage of extended primers) ([1]; AM-dNTP: G) [%] | Percentage of AM-dNTP Incorporation (percentage of extended primers) ([1]; AM-dNTP: T) [%] | Percentage of AM-dNTP Incorporation (percentage of extended primers) ([2]; AM-dNTP: A) [%] | Percentage of AM-dNTP Incorporation (percentage of extended primers) ([2]; AM-dNTP: C) [%] | Percentage of AM-dNTP Incorporation (percentage of extended primers) ([2]; AM-dNTP: G) [%] | Percentage of AM-dNTP Incorporation (percentage of extended primers) ([2]; AM-dNTP: T) [%]
B1 | 74 | 86 | 30 | 76 | 15 | 69 | 12 | 61
B2 | 4 | 68 | 65 | 71 | 0 | 27 | 15 | 52
